Consider 72 sequences from the supplement of paper PMC10567573.

This data set in a line: protein stability index of a GFP-peptide fusion (GPS, HEK-293T) (PSI 1-6); higher = more stable.
The mark [1] stands for this setting: treatment: DMSO, c terminus: a fixed tail appended.
The mark [2] stands for this setting: treatment: MLN4924 1 uM, 8 h, c terminus: a fixed tail appended.
Where [3] appears, read: treatment: DMSO, c terminus: native.
The mark [4] stands for this setting: treatment: MLN4924 1 uM, 8 h, c terminus: native.

± gives the standard deviation.
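Also: 24-mer peptide tiles fused after GFP, lentivirally expressed, FACS-sorted into six equal bins by GFP/DsRed ratio, decoded by Illumina sequencing, PSI is the read-weighted mean bin number.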

For RNRLAATKCRKRKLERIARLEDKV [JUNB], the protein stability index by setting is: under setting [1], 3.78 ± 0.17; under setting [2], 3.86 ± 0.12.

With RNVLELNDVRQSANYTCVAMSTLG [PTPRD], the protein stability index by setting is: under setting [1], 2.85 ± 0.28; under setting [2], 2.74 ± 0.17.

Turning to RNWALKESFIKAIGVGLGFELQRL [AASDHPPT], the protein stability index amounted to 3 ± 0.54 under setting [1] and 2.63 ± 0.52 under setting [2].

In the case of RPVILDPADPTGNLGGGDPKGWRQ [OAS1], the protein stability index reads like this: under setting [1], 4.28 ± 0.18; under setting [2], 4.47 ± 0.18.

Take RPWADTCSSSGKDGNLCLHVPNPP [HESX1]: the protein stability index reads like this: under setting [1], 3.48 ± 0.14; under setting [2], 3.81 ± 0.19.

Take RQVWLLFEYPESSGPARVIAIVSV [KCNA1]: the protein stability index stood at 3.25 ± 0.45 under setting [1] and 2.64 ± 0.48 under setting [2].

As for RRGRMALCGQAAGAASLPSELIVH [FBXO33], the protein stability index runs as follows: under setting [1], 2.96 ± 0.25; under setting [2], 2.78 ± 0.32.

Consider RRLEAFEHPNVVRLMDVCATSRTD [CDK4], for which the protein stability index by setting is: under setting [1], 3.9 ± 0.13; under setting [2], 3.91 ± 0.27.

For RRVGILGEELADVGGVLRGLNHSL [SCARA5], the protein stability index was determined as 2.9 ± 0.095 under setting [1] and 2.94 ± 0.3 under setting [2].

In turn, RSHHLEMVIQLLAIMCVSCICWSP [PTGFR] had a protein stability index under setting [1] of 3.18 ± 0.26 and a protein stability index under setting [2] of 3.14 ± 0.69.

Regarding RSLEELTRLAFELFAEEQAEGPNR [LPCAT4], the protein stability index worked out at 3.32 ± 0.52 under setting [1] and 3.53 ± 0.18 under setting [2].

Regarding RSLSERTVDKCFGRKKYDIDPRNG [SPATS1], the protein stability index under setting [1] amounted to 4.39 ± 0.24 and the protein stability index under setting [2] stood at 4.73 ± 0.33.

For the sequence RSREARSRLLLLEQELKTVTYSLL [SMAD6], the protein stability index stood at 2.61 ± 0.36 under setting [1] and 2.5 ± 0.33 under setting [2].

With RTDEELQPPTTTVARSGTPAVENK [PLK2], the protein stability index runs as follows: under setting [1], 5.42 ± 0.6; under setting [2], 5.45 ± 0.27.

Consider RTFLETSTDTAVTNEWEKRLSTSP [EPB41L3], for which the protein stability index turned out to be 4.17 ± 0.33 under setting [1] and 3.98 ± 0.2 under setting [2].

In turn, RTKSRTWAGEKSKREMYSRLKKL [CDC25A] came in with a protein stability index under setting [3] of 4.36 ± 0.32 and a protein stability index under setting [4] of 4.51 ± 0.38.

RTYGEPESAGPSRAVRQSVTSFPD [EMD]: the protein stability index is, setting by setting: under setting [1], 4.92 ± 0.24; under setting [2], 4.94 ± 0.14.

For the sequence RVLNSAKEKSSTVPIPTVNQYLYF [SOAT1], the protein stability index came out at 2.29 ± 0.14 under setting [1] and 2.47 ± 0.16 under setting [2].

As to RVMMASASDYFKAMFTGGMKEQDL [KLHL13], the protein stability index by setting is: under setting [1], 2.91 ± 0.58; under setting [2], 2.82 ± 0.091.

In the case of RVRPLARVTSLANLISPVRNGAVR [NET1], the protein stability index is, setting by setting: under setting [1], 3.12 ± 0.17; under setting [2], 3.2 ± 0.41.

Turning to RYEQGRFWPHLKASNWSTTGFGQG [HDAC6], the protein stability index came out at 2.54 ± 0.28 under setting [1] and 2.6 ± 0.12 under setting [2].

For the sequence RYESLTDPSKLDSGKELKIDIIPN [HSP90AB1], the protein stability index reads like this: under setting [1], 4.33 ± 0.2; under setting [2], 4.31 ± 0.24.

On to SAPDTMKRYSMYLTPKGGVRTSYQ [TRIM29], for which the protein stability index came out at 2.94 ± 0.21 under setting [1] and 3.05 ± 0.16 under setting [2].

SAPEQELLVQDATPVSNSLLPEKA [GFOD1]: the protein stability index is, setting by setting: under setting [1], 5.29 ± 0.28; under setting [2], 5.4 ± 0.26.

In turn, SAPPTSRTSSGNVWVTHEEMETLE [PPFIA4] displayed a protein stability index under setting [1] of 5.12 ± 0.29 and a protein stability index under setting [2] of 4.88 ± 0.39.

In the case of SAQLQELVCHVMMGNLVMFRKDSV [INTS3], the protein stability index runs as follows: under setting [1], 3.07 ± 0.38; under setting [2], 2.83 ± 0.37.

Sequence SARYLSQCQEAEQARAELTAQHQR [FBF1] yielded a protein stability index under setting [1] of 4.76 ± 0.28 and a protein stability index under setting [2] of 4.57 ± 0.15.

Take SCFLINTADRIIRVYDGREILTCG [RBBP5]: the protein stability index by setting is: under setting [1], 1.91 ± 0.098; under setting [2], 1.91 ± 0.27.

As to SCPEGDASECPQATNAKDSGCSSP [PPEF2], the protein stability index reads like this: under setting [1], 5.63 ± 0.34; under setting [2], 5.7 ± 0.27.

For SCSQSHCCSRYLCMGAMSLFLPCL [SPRY1], the protein stability index reads like this: under setting [1], 2.52 ± 0.44; under setting [2], 2.5 ± 0.4.

For the sequence SDASSHANAAKHTQDSARVNPQDG [EHMT1], the protein stability index reads like this: under setting [1], 5.27 ± 0.22; under setting [2], 5.36 ± 0.21.

As to SEADASHCIQQILEAVLHCHQMGV [CAMK2B], the protein stability index reads like this: under setting [1], 2.48 ± 0.14; under setting [2], 2.67 ± 0.59.

Regarding SEAEEALYLIAKRNRKLKCTFSLT [SLC22A15], the protein stability index is 2.52 ± 0.15 under setting [1] and 2.56 ± 0.12 under setting [2].

Consider SEASIASNLQAMSTQMFQTKRCFR [SMG5], for which the protein stability index worked out at 3.94 ± 0.13 under setting [1] and 4.08 ± 0.15 under setting [2].

For the sequence SEIGTSDQIVPEYQEDSDISSFFC [TRIB1], the protein stability index reads like this: under setting [1], 4.39 ± 0.47; under setting [2], 4.55 ± 0.36.

On to SEMWDIFLVRLLMAMAVMLYYSNF [MFSD9], for which the protein stability index is, setting by setting: under setting [1], 3.25 ± 0.38; under setting [2], 3.36 ± 0.33.

Regarding SEPYKLLPGAVATIVKPLSAIPQP [HNF4A], the protein stability index runs as follows: under setting [1], 3.44 ± 0.3; under setting [2], 3.59 ± 0.16.

Regarding SERDKRPEGYNLKDEEGRLRDPAT [PPP2R2B], the protein stability index worked out at 5.6 ± 0.29 under setting [1] and 5.4 ± 0.18 under setting [2].

SERPLDFLDLERPPTTPQNEEIRA [MFF] showed a protein stability index under setting [1] of 5.29 ± 0.39 and a protein stability index under setting [2] of 5.55 ± 0.15.

Turning to SFLNVTKSSLIWSYPAGSLTFPVR [TRIM43], the protein stability index amounted to 1.89 ± 0.045 under setting [1] and 2.17 ± 0.16 under setting [2].

Consider SGLQGLPECTRCGHGIVGTIVKAR [PDLIM4], for which the protein stability index reads like this: under setting [1], 2.51 ± 0.32; under setting [2], 2.64 ± 0.34.

Consider SGRHPSHSTTPSGPGDEVARGIAG [ARFIP2], for which the protein stability index worked out at 4.81 ± 0.13 under setting [1] and 4.62 ± 0.22 under setting [2].

Regarding SGSLITAGRIDREELCAQSARCVV [PCDHGA10], the protein stability index reads like this: under setting [1], 3.22 ± 0.4; under setting [2], 3.2 ± 0.29.

Turning to SGTVAAVLTLPFDVVKTQRQVALG [SLC25A39], the protein stability index was 2.15 ± 0.32 under setting [1] and 2.27 ± 0.3 under setting [2].

As for SHAWEVALGGLQSWRVGVVRVRQD [TRIM35], the protein stability index amounted to 2.47 ± 0.26 under setting [1] and 2.35 ± 0.36 under setting [2].

Turning to SHYFKIIEDLRAQIFANTVDNARI [KRT18], the protein stability index reads like this: under setting [1], 2.4 ± 0.44; under setting [2], 2.07 ± 0.24.

In turn, SIDLGTAHSAAVTASGDCYTFGSN [NEK8] yielded a protein stability index under setting [1] of 3.79 ± 0.31 and a protein stability index under setting [2] of 4.06 ± 0.35.

Regarding SKESSKEKKLTVRQDLEDRYAEHV [C22orf31], the protein stability index by setting is: under setting [1], 5.09 ± 0.27; under setting [2], 5.16 ± 0.1.

As to SLDGKAIKVEQATKPSFESGRRGP [RBMX], the protein stability index was determined as 4.84 ± 0.4 under setting [1] and 4.94 ± 0.35 under setting [2].

As for SLEKLLASEPLPWDLRFRIIHETA [RIPK4], the protein stability index under setting [1] was 2.18 ± 0.33 and the protein stability index under setting [2] worked out at 2.31 ± 0.33.

As to SLIGKGSFGQVVKAYDHQTQELVA [DYRK1B], the protein stability index was 3.56 ± 0.26 under setting [1] and 3.59 ± 0.43 under setting [2].

For SLMYRSPPGAEEPQAPPASRDEAA [RETREG3], the protein stability index by setting is: under setting [1], 5.44 ± 0.22; under setting [2], 5.38 ± 0.26.

As for SNSRQLKWLSCGFMLEIVTPTSLS [FBXO33], the protein stability index was 3.39 ± 0.73 under setting [1] and 2.83 ± 0.67 under setting [2].

Take SPALSQGHVTGSKTTKDATGPDT [PSD2]: the protein stability index runs as follows: under setting [3], 5.33 ± 0.28; under setting [4], 5.43 ± 0.23.

For the sequence SPASHVDVDLTIHGRHIDCPATWG [FOXJ1], the protein stability index is 3.14 ± 0.2 under setting [1] and 3.28 ± 0.19 under setting [2].

In the case of SPMLIVFHGKYSTINPLWHIRHLG [GLT8D2], the protein stability index was 2.82 ± 0.44 under setting [1] and 2.47 ± 0.71 under setting [2].

For SPMPYVKWMLGAEDLTPEDDMPIG [PTPRD], the protein stability index runs as follows: under setting [1], 4.3 ± 0.26; under setting [2], 4.17 ± 0.48.

Regarding SPPTRPVPGHRSERAIRTQPKQLI [SPRY1], the protein stability index is, setting by setting: under setting [1], 4.04 ± 0.37; under setting [2], 4.05 ± 0.18.

As for SPSKTDGKELAGTMDGEGTLFQTE [PBXIP1], the protein stability index by setting is: under setting [1], 5.31 ± 0.24; under setting [2], 5.44 ± 0.3.

Consider SPSPMSHGHYSMHCLHSAGHSQPD [DLX1], for which the protein stability index is, setting by setting: under setting [1], 3.82 ± 0.18; under setting [2], 3.91 ± 0.21.

For the sequence SRDRRRSSDRSRDSSHERTESQLT [BTBD10], the protein stability index under setting [1] worked out at 5.45 ± 0.32 and the protein stability index under setting [2] amounted to 5.5 ± 0.22.

Consider SRLGQGIGPIHLNEIQCTGNEKSI [LOXL2], for which the protein stability index was found to be 4.42 ± 0.32 under setting [1] and 4.09 ± 0.18 under setting [2].

Turning to SRSNGSSPEARDARSPSGPSGSLE [TRIM29], the protein stability index is, setting by setting: under setting [1], 5.16 ± 0.17; under setting [2], 5.29 ± 0.3.

SSDHLFLFGGFTTDKQPLSDAWTY [KLHDC2]: the protein stability index reads like this: under setting [1], 2.25 ± 0.61; under setting [2], 2.23 ± 0.063.

Turning to SSLSSESSESSDAGLCMDSPSPMD [CDC25B], the protein stability index under setting [1] came to 5.462 ± 0.013 and the protein stability index under setting [2] was 5.37 ± 0.23.

SSSASSSFSEEGAVGYSSDSETLD [NFE2L1]: the protein stability index came to 5.65 ± 0.13 under setting [1] and 5.655 ± 0.043 under setting [2].

With STEVQAHPYSTTFQESASTPETRA [TEKT4], the protein stability index under setting [1] was determined as 5.23 ± 0.17 and the protein stability index under setting [2] turned out to be 5.16 ± 0.1.

As for STHHGCEHICVNNGNSYICKCSEG [MATN2], the protein stability index runs as follows: under setting [1], 5.16 ± 0.27; under setting [2], 4.94 ± 0.23.

As to STLGTLQPPPAPPKKIMPEAHSHY [PPFIA4], the protein stability index was 4.02 ± 0.18 under setting [1] and 4.24 ± 0.1 under setting [2].

STLKEVKPTVFIGVPQIWEKIHEM [ACSBG2]: the protein stability index reads like this: under setting [1], 2.1 ± 0.24; under setting [2], 2.27 ± 0.31.

As to STNDKTVKLWKVSERDKRPEGYNL [PPP2R2B], the protein stability index under setting [1] stood at 3.93 ± 0.12 and the protein stability index under setting [2] was determined as 4.19 ± 0.14.

For the sequence STSLLTSAGNRTHKARTRPKARKQ [ADAMTSL2], the protein stability index runs as follows: under setting [1], 4.89 ± 0.35; under setting [2], 4.92 ± 0.25.
